Reference: the supplement of paper PMC9732359
± gives the uncertainty stated by the source.

Assay: protein stability index of a GFP-peptide fusion (yeast GPS) (PSI 1-4); higher = more stable; sorted into four equal gates, so the index is relative within each strain
Summary of the method: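 Sequencing reads from sorted gates were used to score each peptide. The library consisted of tiled 17-residue yeast protein peptides fused downstream of GFP on a Cherry-expressing plasmid, pooled and carried in yeast. Mid-log cultures in leucine-free medium were split into four equal gates by GFP/Cherry ratio, and each gate's plasmids were PCR-amplified and Illumina-sequenced. The protein stability index adds up, over all gates, the read frequency multiplied by the gate number.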

Row | Sequence | protein stability index (doa10∆) | protein stability index (pdr5∆) | protein stability index (san1∆) | protein stability index (ubr1∆)
1 | SEIIDTNTSKQFQKARN [SRB8] | 2.71 ± 0.12 | 3.01 ± 0.063 | 3.16 ± 0.056 | 2.92 ± 0.095
2 | KNIKIIMATNRLDILDP [RPT6] | 2.91 ± 0.14 | 2.55 ± 0.079 | 2.41 ± 0.068 | 3.3 ± 0.058
3 | ESDAPPKSTAPIFSFGK [YOR098C/NUP1] | 2.72 ± 0.044 | 2.58 ± 0.044 | 2.71 ± 0.042 | 2.76 ± 0.038
4 | IFKDKEKLVSDLRLIKV [SMC1] | 3.25 ± 0.26 | 3.23 ± 0.089 | 3.31 ± 0.21 | 3.44 ± 0.15
5 | SIVNICDIQEEQVDITA [PUP1] | 2.83 ± 0.15 | 2.91 ± 0.16 | 3.31 ± 0.12 | 2.74 ± 0.11
6 | GRNNGKKLKAVRIIKHT [RPS5] | 2.06 ± 0.12 | 2.25 ± 0.08 | 1.79 ± 0.09 | 2.81 ± 0.082
7 | ENDVKPISIEAPQFYRY [SWI3] | 2.55 ± 0.038 | 2.14 ± 0.039 | 2.2 ± 0.055 | 1.95 ± 0.035
8 | PGRIDRKILFENPDLST [RPT2] |  | 3.52 ± 0.28 | 3.35 ± 0.14 | 3.37 ± 0.056
9 | SITLQGDVYDPEGTLSG [SMC2] | 2.76 ± 0.16 | 2.6 ± 0.13 |  | 2.28 ± 0.12
10 | NNRRRSRKRGGENVFLK [SIR3] | 3.6 ± 0.11 | 3.23 ± 0.084 | 3.07 ± 0.086 | 3.33 ± 0.048
11 | SSGAGTVKLYLPEILNV [ECM29] | 1.45 ± 0.065 | 1.72 ± 0.055 | 2.02 ± 0.075 | 1.47 ± 0.066
12 | QTSLVRMFEKNVMLNIY [SKI6] |  | 3.17 ± 0.11 | 3.29 ± 0.13 | 3.12 ± 0.076
13 | LEDGDVVLFNRQPSLHR [RPO31] | 2.42 ± 0.072 | 2.67 ± 0.062 | 2.47 ± 0.072 | 2.08 ± 0.051
14 | LLRFNGVERLIPVGDNT [PRE4] | 1.58 ± 0.068 | 1.73 ± 0.07 | 1.53 ± 0.13 | 1.86 ± 0.093
15 | EILNLSTQELQTRAKLL [RPT5] |  | 2.18 ± 0.18 | 3.04 ± 0.091 | 3.08 ± 0.085
16 | KRCLFESLSNEAALKAN [RPO31] |  |  |  | 2.84 ± 0.22
17 | SSAADITMESVHEWEVS [PRP8] | 3.28 ± 0.062 | 3.32 ± 0.055 | 3.31 ± 0.048 | 3.29 ± 0.046
18 | EYRPFSKKVLECLPAEG [DIS3] | 1.39 ± 0.13 | 1.68 ± 0.12 | 1.46 ± 0.1 | 1.56 ± 0.068
19 | IDYHKTAKETKMLMNLH [RPN11] | 2.5 ± 0.061 | 2.45 ± 0.06 | 2.84 ± 0.057 | 2.58 ± 0.055
20 | GSYLCTSSTPSPIKNGS [YOR098C/NUP1] | 2.95 ± 0.054 | 2.94 ± 0.054 | 2.78 ± 0.053 | 2.97 ± 0.04
21 | NSTTSGGLFGNKVGSTG [YGR119C/NUP57] | 3.17 ± 0.13 | 3.47 ± 0.19 | 3.21 ± 0.071 | 3.29 ± 0.17
22 | EKRWNDELELEDAIHIA [PRE8] | 3.35 ± 0.17 | 3.25 ± 0.1 | 3.26 ± 0.13 | 3.23 ± 0.2
23 | EQQVAEEATTEEAGEEE [RPS0A] | 2.89 ± 0.14 | 2.82 ± 0.24 | 2.6 ± 0.19 | 
24 | SYKMIQLDAYGEKKVGS [SWP82] | 3.27 ± 0.093 | 3.37 ± 0.093 | 3.35 ± 0.075 | 3.02 ± 0.072
25 | GLPLGIAEEKMWSQFQT [YGR119C/NUP57] | 2.84 ± 0.14 |  |  | 3.05 ± 0.19
26 | YQNMAFITAKDKYKLYP [YJR042W/NUP85] | 2.9 ± 0.063 | 3.06 ± 0.11 | 3.16 ± 0.076 | 2.88 ± 0.077
27 | LDQTKDTRITHLLRQTN [SNF2] | 1.34 ± 0.036 | 1.41 ± 0.034 | 1.54 ± 0.061 | 1.32 ± 0.029
28 | PRYHSKNSFQQALQMKA [SWP82] | 1.4 ± 0.033 | 1.82 ± 0.049 | 1.38 ± 0.062 | 1.45 ± 0.043
